Assay results from the supplement of paper PMC10567573.

B1: ZNF8 (parent)
chain: VHVIGVEEPSVGASMLFDIREST
B2: KRT34 (parent)
chain: PTVDLNQVLNETRSQYEALVETNR

Variants of: B1
Assay: protein stability index of a GFP-peptide fusion (GPS, HEK-293T) (PSI 1-6); higher = more stable
Settings: c terminus: native
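Further: lentivirally expressed fusions sorted by FACS into six bins by GFP to DsRed ratio, PSI derived from sequencing read proportions per bin multiplied by bin number.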

Variant	protein stability index
S22H	2.55
S22K	2.3
S22M	2.55
S22D	2.62
S22C	2.52
S22A	2.38
D18V	2.9
D18I	3.24
D18N	2.48
D18M	2.02
D18G	1.65
D18A	1.69
D18E	1.31
E21A	2.37
E21C	2.9
E21I	3.55
E21P	1.42
E21N	2.08
E21K	2.2
T23Q	2.09
T23L	1.79
T23E	2.37
T23I	1.69
T23R	2.63
T23K	2.22
T23M	2.14

Variant	protein stability index
S10L	1.84
S10V	2.16
S10P	2.03
S10T	2.24
S10W	1.68
S10H	2.1
S10A	2.58
S10F	1.26
V6L	2.25
V6R	2.35
V6T	2.33
V6I	1.75
V6E	2.99
V6Q	2.64
V6A	2.52
I4M	2.77
I4Y	2.16
I4T	3.3
I4W	1.94
I4C	2.59
I4V	2.54
I4D	3.97
E7V	2.84
E7Q	1.55
E7S	1.94
E7N	1.88

Variant	protein stability index
V3D	3.95
V3F	1.94
V3E	4.1
M15I	2.59
M15C	2.49
M15W	2.34
M15K	3.24
M15E	3.67
M15R	2.47
M15G	3.15
M15A	2.88
M15T	2.3
M15D	2.93
F17V	2.21
F17C	2.71
F17W	2.28
F17Q	3.41
F17R	3.08
F17E	3.91
F17M	2.52
R20V	1.57
R20M	1.79
R20Q	2.36
R20C	1.85
R20W	2.43
R20F	2.49

Variant	protein stability index
R20A	1.64
R20P	2.48
I19Y	2.06
I19W	1.51
I19V	2.38
I19R	2.7
I19C	2.37
I19H	3.37
I19Q	3.4
E8K	2.11
E8L	2.75
E8M	1.95
E8G	2.18
E8I	4.45
E8W	4.73
E8Q	1.78
E8D	1.69
G12Q	1.88
G12R	2.4
G12T	1.56
G12D	2.87
G12L	1.52
P9S	1.73
P9R	2.27
P9E	2.44
P9L	2.23

Variant	protein stability index
P9W	3.09
P9G	2.31
P9I	2.47
P9T	2.12
L16Y	2.31
L16W	1.41
L16S	2.83
L16E	3.17
L16C	2.19
L16V	2
V11Y	1.92
V11M	1.82
V11W	1.44
V11G	2.28
V11H	2.42
V11T	2.24
V11Q	2.1
V11L	1.85
S14L	2.31
S14K	2
S14Q	2.12
S14I	3.13
S14M	2.31
S14D	2.62
H2R	2.09
H2G	3.35

Variant	protein stability index
H2C	1.63
H2S	2.81
H2L	2.9
A13W	3.12
A13T	1.93
A13C	1.34
A13Y	1.66
A13Q	1.98
A13M	1.57
A13S	1.96
A13R	1.97
G5N	2.18
G5Q	1.66
G5V	2.71
G5P	2.36
G5E	2.42
V1K	3.52
V1L	1.79
V1A	3.67
V1G	3.85
V1M	2.29
V1W	2.06

Variants of: B2
Assay: as above
Settings: c terminus: a fixed tail appended

Variant	protein stability index
N10S	3.46
N10G	4.35
N10D	3.74
N10P	4.55
N10R	3.21
N10H	3.19
N10A	2.44
N10K	2.7
N10W	3.02
V20N	4.42
V20H	4.77
V20W	3.83
V20D	4.71
V20M	3.58
V20P	4.91
V20G	4.44
V20I	4
T12R	4.28
T12D	5.22
T12Q	2.21
T12F	2.4
T12E	4.27
T12A	1.8

Variant	protein stability index
T12I	1.84
R24P	4.58
R24E	3.88
R24D	4.95
R24H	4.08
R24L	2.68
R24K	4.32
R24A	3.51
L9A	4.09
L9D	5.55
L9C	4.45
L9E	4.52
L9I	3.14
L9R	4.36
L9Q	3.36
L9V	4.28
Q7E	3.25
Q7I	2.99
Q7M	3.62
Q7F	3.61
Q7S	3.62
Q7T	2.75
Q7W	3.08

Variant	protein stability index
Q7R	3.65
L19I	4.16
L19P	4.7
L19W	3.98
L19M	3.84
L19F	3.51
L19D	5.03
L19R	4.81
L19C	4.72
L19N	5.01
L19E	5.63
E11P	4.1
E11F	3.22
E11S	3.85
E11L	3.36
E11I	3.42
E11Q	3.93
E11W	3.15
E11N	3.69
E11C	3.91
E11A	4.06
E11K	3.79
N23R	4.11

Variant	protein stability index
N23Q	4.52
N23T	3.99
N23V	3
N23P	4.04
N23L	2.41
N23F	3.71
N23H	4.05
R13E	5.07
R13L	3.34
R13S	4.67
R13Y	3.64
R13Q	3.97
R13P	4.79
T2Y	1.65
T2W	1.4
T2V	2.52
T2L	1.85
T2S	3.27
T2G	4.14
T2E	2.78
T2M	1.85
Y16L	4.19
Y16I	4.23

Variant	protein stability index
Y16V	4.9
Y16S	4.98
Y16M	4.76
Y16C	4.44
Y16G	4.89
A18E	3.69
A18P	4.6
A18W	3.5
A18D	3.92
A18Y	3.6
A18C	4.01
A18L	3.66
A18M	3.74
A18T	3.81
Q15M	2.35
Q15C	2.94
Q15A	4
Q15N	4.02
Q15H	3.78
Q15F	2.82
Q15I	2.96
P1F	3.22
P1A	3.41

Variant	protein stability index
P1E	2.82
P1D	4.12
P1G	3.5
V8I	3.57
V8Q	4.3
V8C	3.48
V8P	4.2
V8T	3.76
V8M	2.88
E21G	4.06
S14M	1.65
S14W	2.74
S14Y	3.33
S14A	2.09
S14C	2.25
S14R	2.15
S14I	2.44
S14D	2.87
S14F	3.3
L5Q	4.38
L5Y	2.77
L5M	4.24
L5T	4.8

Variant	protein stability index
L5G	4.68
L5R	4.53
L5N	4.57
L5C	3.68
D4Q	4.34
D4P	3.05
D4C	2.97
D4V	4.02
D4H	3.56
D4T	3.5
V3D	4.76
V3G	4.15
V3E	4.03
V3T	3.89
V3A	3.63
V3R	2.92
V3H	3.8
N6R	3.9
N6S	3.33
N6P	4.8
N6V	2
N6Q	2.56
N6M	1.9

Variant	protein stability index
T22R	4.46
T22C	3.62
T22I	1.68
T22K	3.66
T22V	1.71
T22P	4.28
T22D	4.58
T22H	3.99
T22A	4.01
T22L	2.54
T22M	3.19
E17G	4.02
E17C	2.93
E17R	3.83
E17W	3.35
E17V	3.7
E17N	4.05
E17F	3.08
E17S	3.85
E17A	3.77
E17Q	3.88
